Residue numbers refer to the chain shown, from its start. Several values for one entry are separate records, joined by “and”; a condition that tells them apart may be missing. Identical values can stand only once. Each block holds one binder with its values, some of them ahead of it.
What was measured:
[1] = target: T1, recombinant human IL-1β (human, UniProt P01584 117-269); assay: BIAcore, captured antibody, IL-1β titrated in solution, 25 °C
T1 construct: Only the background speaks of the mature 17 kDa form; also called hIL-1β; interleukin-1β

[2] = target: T1, recombinant human IL-1β; assay: BIAcore, antibody captured by anti-hFc, IL-1β titrated in solution, 25 °C
Procedure: The assay format used anti-IL-1β antibody captured by anti-hFc with a titration of recombinant human IL-1β in the solution phase. Mouse anti-human IgG, Fc fragment-specific (Celltech) was immobilised on flowcell 2 of a CM5 Sensor Chip via amine coupling chemistry to a level of 12757RU. A blocked reference surface was prepared on flowcell 1 by activation with EDC/NHS and deactivation with ethanolamine using the same volumes as for flowcell 2. HBS-EP buffer (10 mM HEPES pH 7.4, 0.15 M NaCl, 3 mM EDTA, 0.005% Surfactant P20, Biacore AB) was used as the running buffer and assays were performed at 25° C. Anti-IL-1β antibody was passed over flowcells 1 and 2 and captured on the immobilised anti-hFc surface using a flowrate of 10 μl/min. IL-1β from 400-0 nM was injected over the blocked and captured anti-IL-1β antibody surface using a flowrate of 30 μl/min for 3 min. The anti-hFc surface was regenerated with a 30 μl injection of 40 mM HCl. Kinetic parameters were calculated using BIAevaluation 3.1 software.

[3] = target: T1, recombinant human IL-1β; assay: BIAcore, Fab′ captured by anti-hF(ab′)2, IL-1β titrated in solution, 25 °C
Procedure: Affinipure goat anti-human IgG, F(ab′)₂ fragment-specific (Jackson ImmunoResearch Code 109-005-097) was immobilised on flowcell 2 of a CM5 Sensor Chip via amine coupling chemistry to a level of 13025RU. A blocked reference surface was prepared on flowcell 1 by activation with EDC/NHS and deactivation with ethanolaomine using the same volumes as for flowcell 2. HBS-EP buffer (10 mM HEPES pH 7.4, 0.15 M NaCl, 3 mM EDTA, 0.005% Surfactant P20, Biacore AB) was used as the running buffer and assays were performed at 25° C. Anti-IL-1β antibody was passed over flowcells 1 and 2 and captured on the immobilised anti-hF(ab′)₂ surface using a flowrate of 10 μl/min. IL-1β (Strathmann) from 400-0 nM was injected over the blocked and captured anti-IL-1β antibody surface using a flowrate of 30 μl/min for 3 min. The anti-hF(ab′)₂ surface was regenerated with a 30 μl injection of 40 mM HCl followed by a 15 μl injection of 5 mM NaOH. Kinetic parameters were calculated using BIAevalutation 3.1 software.

B1: murine monoclonal antibody IC8 (antibody, V domains shown)
VH: DVQLVESGGGLVKPGGSLKLSCAASGFDFSRYDMSWVRQTPEKRLEWVAYISSGGGSTYFPDTVKGRFTISRDNAKNTLYLQMNNLQSEDTAMFYCARQNKKLTWFDYWGQGTLVTVSS
VL: DIQMTQSPASLSASVGETVTITCRTSGNIHNYLTWYQQNLGKSPQLLVYNAKTLADGVPSRFSGSGSGTQFSLTINSLQPEDFGNYYCQHFWSLPFTFGSGTKLEIKR
notes: Mouse monoclonal antibody from a hybridoma; also called mIC8; donor antibody
- Kd [1]: 0.3 nM

B2: double chimeric IC8 antibody molecule cHcL (antibody, V domains shown)
VH: B1 VH
VL: B1 VL
notes: Murine IC8 V-regions on human gamma-4 heavy and human kappa light constant regions (vectors pMRR14 and pMRR10), expressed in CHO-L761 cells
- Kd [2]: 0.38 nM

B3: gH3gL3 Fab′ (E. coli-produced) (Fab, V domains shown)
VH: B1 VH with D1E, K13Q, K19R, T40A, E42G, N85S, Q87R, S88A, M93V, F94Y
VL: DIQMTQSPSSLSASVGDRVTITCRTSGNIHNYLTWYQQKPGKAPQLLIYNAKTLADGVPSRFSGSGSGTQFTLTISSLQPEDFANYYCQHFWSLPFTFGQGTKVEIKR
notes: Unpegylated Fab′ with a modified hinge, purified from E. coli periplasm; also called gIC8 Fab′; IC8gL3gH3 Fab′
- Kd [3]: 0.32 nM

B4: CDR-grafted IC8 antibody gH1gL2 (antibody, V domains shown)
VH: B1 VH with D1E, K13Q, K19R, T40A, E42G, N85S, Q87R, S88A, F94Y
VL: B3 VL with I48V
notes: Human gamma-4 heavy and kappa light constant regions (pMRR14 and pMRR10), expressed in CHO-L761 cells
- Kd [2]: 0.34 nM

B5: CDR-grafted IC8 antibody gH1gL3 (antibody, V domains shown)
VH: B1 VH with D1E, K13Q, K19R, T40A, E42G, N85S, Q87R, S88A, F94Y
VL: B3 VL
notes: as for B4
- Kd [2]: 0.3 nM

B8: CDR-grafted IC8 antibody gH2gL3 (antibody, V domains shown)
VH: B1 VH with D1E, K13Q, K19R, T40A, E42G, R44G, N85S, Q87R, S88A, F94Y
VL: B3 VL
notes: as for B4
- Kd [2]: 1.14 nM and 1.07 nM

B9: CDR-grafted IC8 antibody gH3gL2 (antibody, V domains shown)
VH: B1 VH with D1E, K13Q, K19R, T40A, E42G, N85S, Q87R, S88A, M93V, F94Y
VL: B3 VL with I48V
notes: as for B4
- Kd [2]: 0.32 nM

B10: CDR-grafted IC8 antibody gH1gL1 (antibody, V domains shown)
VH: B1 VH with D1E, K13Q, K19R, T40A, E42G, N85S, Q87R, S88A, F94Y
VL: B3 VL with P40L, I48V
notes: as for B4
- Kd [2]: 0.35 nM

The remaining lines, values ahead:

- Kd [2]: 0.28 nM
B6: CDR-grafted IC8 antibody gH3gL1 (antibody, V domains shown)
VH: B1 VH with D1E, K13Q, K19R, T40A, E42G, N85S, Q87R, S88A, M93V, F94Y
VL: B3 VL with P40L, I48V
notes: as for B4

- Kd [2]: 0.28 nM
B7: CDR-grafted IC8 antibody gH3gL3 (antibody, V domains shown)
VH: B1 VH with D1E, K13Q, K19R, T40A, E42G, N85S, Q87R, S88A, M93V, F94Y
VL: B3 VL
notes: Human gamma-4 heavy and kappa light constant regions (pMRR14 and pMRR10), expressed in CHO-L761 cells; also called gL3gH3

- Kd [2]: 1.27 nM
B11: CDR-grafted IC8 antibody gH2gL1 (antibody, V domains shown)
VH: B1 VH with D1E, K13Q, K19R, T40A, E42G, R44G, N85S, Q87R, S88A, F94Y
VL: B3 VL with P40L, I48V
notes: as for B4
